In patent publication US20250019439A1 (Adimab, published 2025):

Columns and labels:
[1] = target: T1, ADI-70326; assay: SPR Carterra avidity, yeast anti-ID
T1 construct: anti-CD3 antibody made in CHO cells, captured by anti-human Fc
Protocol: (§1) Kinetic analysis was conducted at 25° C. in an HBSTE running buffer system (Carterra Cat #3630) using a Carterra LSA (Carterra USA, Salt Lake City, UT). The sample compartment was maintained at 20° C. for the duration of each experiment.
(§2) For antibody capture experiments, a goat anti-human Fc antibody (Jackson ImmunoResearch) was covalently coupled to an HC30M sensor chip surface via standard amine coupling (1:1 EDC:NHS) and then blocked with ethanolamine (1.0 M, pH 8.5). Covalent coupling steps were performed in 25 mM MES buffer (Carterra, Cat #3625) plus 0.05% Tween20. The anti-CD3 antibodies (100 nM in running buffer) were flowed over discrete regions of interest on the chip surface for 5 minutes. […] Dissociation of the anti-idiotype antibodies was monitored for 300s. Several blank buffer samples were injected over the entire chip surface at the start of each non-regenerative kinetic cycle. The preceding blank buffer injection was used for blank surface subtraction. At the end of each non-regenerative kinetic cycle, all surfaces were regenerated via two 30s injections of 10 mM glycine, pH 1.7.
(§3) For data processing and fitting, sensorgrams were double reference subtracted with a baseline drift correction of 4 RU. Sensorgrams were y-aligned and baseline corrected, filtered and cropped to include only the association and dissociation steps. Data was fitted to a 1:1 binding model using Carterra Kinetics Data Analysis software version 1.7.1.3055.

[2] = target: T2, ADI-70327; assay: SPR Carterra avidity, yeast anti-ID
T2 construct: anti-CD3 antibody made in CHO cells, captured by anti-human Fc
Protocol: as §1, §2, §3

[3] = target: T3, ADI-70330; assay: SPR Carterra avidity, yeast anti-ID
T3 construct: anti-CD3 antibody made in CHO cells, captured by anti-human Fc
Protocol: as §1, §2, §3

[4] = target: T4, ADI-67450; assay: SPR Carterra avidity, yeast anti-ID
T4 construct: anti-CD3 antibody made in CHO cells, captured by anti-human Fc
T4 sequence (VH, as listed by the source limits assumed, chain 1 of 2): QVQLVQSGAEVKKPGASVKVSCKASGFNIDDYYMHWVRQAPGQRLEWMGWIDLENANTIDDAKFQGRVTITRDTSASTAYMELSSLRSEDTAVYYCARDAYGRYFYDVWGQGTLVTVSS
T4 sequence (VL, as listed by the source limits assumed, chain 2 of 2): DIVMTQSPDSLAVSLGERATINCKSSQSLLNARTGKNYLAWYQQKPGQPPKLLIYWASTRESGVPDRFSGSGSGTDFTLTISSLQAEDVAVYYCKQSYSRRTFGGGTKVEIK
Protocol: as §1, §2, §3

[5] = target: T5, ADI-67445; assay: SPR Carterra avidity, yeast anti-ID
T5 construct: anti-CD3 antibody made in CHO cells, captured by anti-human Fc
T5 sequence (VH, as listed by the source limits assumed, chain 1 of 2): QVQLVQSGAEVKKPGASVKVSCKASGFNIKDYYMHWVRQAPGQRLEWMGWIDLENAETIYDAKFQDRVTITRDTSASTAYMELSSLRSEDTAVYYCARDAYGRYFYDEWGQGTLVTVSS
Protocol: as §1, §2, §3

[6] = target: T6, ADI-67447; assay: SPR Carterra avidity, yeast anti-ID
T6 construct: anti-CD3 antibody made in CHO cells, captured by anti-human Fc
T6 sequence (VH, as listed by the source limits assumed, chain 1 of 2): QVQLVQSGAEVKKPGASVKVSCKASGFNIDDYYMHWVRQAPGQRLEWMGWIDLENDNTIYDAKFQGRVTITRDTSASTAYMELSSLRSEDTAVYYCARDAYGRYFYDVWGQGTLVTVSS
Protocol: as §1, §2, §3

[7] = target: T7, ADI-26909; assay: SPR Carterra avidity, yeast anti-ID
T7 construct: anti-CD3 antibody made in CHO cells, captured by anti-human Fc
T7 sequence (VH, as listed by the source limits assumed, chain 1 of 2): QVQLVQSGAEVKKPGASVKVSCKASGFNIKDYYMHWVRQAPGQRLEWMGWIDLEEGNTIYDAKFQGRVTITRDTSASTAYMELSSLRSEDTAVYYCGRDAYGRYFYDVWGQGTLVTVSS
Protocol: as §1, §2, §3

[8] = target: T8, ADI-26913 IgG; assay: SPR Carterra avidity, yeast anti-ID
T8 construct: anti-CD3 IgG
Protocol: as §1, §2, §3

[9] = target: T9, ADI-26919; assay: SPR Carterra avidity, yeast anti-ID
T9 construct: anti-CD3 antibody made in CHO cells, captured by anti-human Fc
T9 sequence (VH, as listed by the source limits assumed, chain 1 of 2): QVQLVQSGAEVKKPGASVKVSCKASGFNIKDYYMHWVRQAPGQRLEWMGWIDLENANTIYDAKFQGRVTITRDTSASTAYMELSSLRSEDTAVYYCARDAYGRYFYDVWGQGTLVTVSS
T9 sequence (VL, as listed by the source limits assumed, chain 2 of 2): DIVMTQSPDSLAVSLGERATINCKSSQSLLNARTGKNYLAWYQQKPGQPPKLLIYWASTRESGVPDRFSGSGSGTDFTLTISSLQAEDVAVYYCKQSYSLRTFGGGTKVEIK
Protocol: as §1, §2, §3

[10] = target: T10, ADI-26921 IgG; assay: SPR Carterra avidity, yeast anti-ID
T10 construct: anti-CD3 IgG
T10 sequence (VH, as listed by the source limits assumed, chain 1 of 2): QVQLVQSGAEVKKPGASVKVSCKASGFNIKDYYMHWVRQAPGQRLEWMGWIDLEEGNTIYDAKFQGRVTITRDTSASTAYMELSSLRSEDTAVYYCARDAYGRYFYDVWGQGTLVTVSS
Protocol: as §1, §2, §3

[11] = target: T11, ADI-26916 IgG; assay: SPR Carterra avidity, yeast anti-ID
T11 construct: anti-CD3 IgG
T11 sequence (VH, as listed by the source, chain 1 of 2): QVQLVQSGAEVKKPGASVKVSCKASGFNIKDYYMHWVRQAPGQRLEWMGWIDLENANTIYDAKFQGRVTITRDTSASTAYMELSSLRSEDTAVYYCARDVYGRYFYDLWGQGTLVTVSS
Protocol: as §1, §2, §3

[12] = target: T12, ADI-26912; assay: SPR Carterra avidity, yeast anti-ID
T12 construct: anti-CD3 antibody made in CHO cells, captured by anti-human Fc
T12 sequence (VH, as listed by the source, chain 1 of 2): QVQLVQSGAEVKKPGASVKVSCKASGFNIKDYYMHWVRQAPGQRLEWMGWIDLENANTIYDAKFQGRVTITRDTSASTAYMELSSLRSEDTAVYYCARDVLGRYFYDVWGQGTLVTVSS
Protocol: as §1, §2, §3

[13] = target: T13, ADI-26924; assay: SPR Carterra avidity, yeast anti-ID
T13 construct: anti-CD3 antibody made in CHO cells, captured by anti-human Fc
T13 sequence (VH, as listed by the source, chain 1 of 2): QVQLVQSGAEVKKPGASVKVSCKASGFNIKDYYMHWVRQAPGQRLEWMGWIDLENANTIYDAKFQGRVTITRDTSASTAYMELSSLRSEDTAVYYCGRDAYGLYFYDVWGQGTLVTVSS
Protocol: as §1, §2, §3

[14] = target: T14, ADI-26915; assay: SPR Carterra avidity, yeast anti-ID
T14 construct: anti-CD3 antibody made in CHO cells, captured by anti-human Fc
T14 sequence (VH, as listed by the source, chain 1 of 2): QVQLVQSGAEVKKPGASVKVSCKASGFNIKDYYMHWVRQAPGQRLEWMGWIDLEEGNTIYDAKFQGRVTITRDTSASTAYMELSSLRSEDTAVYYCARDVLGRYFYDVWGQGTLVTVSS
Protocol: as §1, §2, §3

[15] = target: T15, ADI-26943; assay: SPR Carterra avidity, yeast anti-ID
T15 construct: anti-CD3 antibody made in CHO cells, captured by anti-human Fc
Protocol: as §1, §2, §3

[16] = target: T16, ADI-48576; assay: SPR Carterra avidity, yeast anti-ID
T16 construct: pH-dependent anti-CD3 antibody made in CHO cells
Protocol: as §1, §2, §3

[17] = target: T17, ADI-48587; assay: SPR Carterra avidity, yeast anti-ID
T17 construct: pH-dependent anti-CD3 antibody made in CHO cells
Protocol: as §1, §2, §3

[18] = target: T18, ADI-48592; assay: SPR Carterra avidity, yeast anti-ID
T18 construct: pH-dependent anti-CD3 antibody made in CHO cells
Protocol: as §1, §2, §3

[19] = target: T19, ADI-48650; assay: SPR Carterra avidity, yeast anti-ID
T19 construct: pH-dependent anti-CD3 antibody made in CHO cells
T19 sequence (VH, as listed by the source, chain 1 of 2): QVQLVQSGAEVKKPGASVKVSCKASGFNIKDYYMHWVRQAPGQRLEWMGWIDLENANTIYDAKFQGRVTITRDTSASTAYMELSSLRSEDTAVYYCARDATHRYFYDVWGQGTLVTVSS
T19 sequence (VL, as listed by the source, chain 2 of 2): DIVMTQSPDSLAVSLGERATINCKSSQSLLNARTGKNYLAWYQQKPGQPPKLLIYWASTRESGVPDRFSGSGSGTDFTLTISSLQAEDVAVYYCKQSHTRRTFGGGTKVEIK
Protocol: as §1, §2, §3

[20] = target: T20, ADI-74965; assay: SPR Carterra avidity, yeast anti-ID
T20 construct: pH-dependent anti-CD3 antibody made in CHO cells
Protocol: as §1, §2, §3

[21] = target: T21, ADI-74966; assay: SPR Carterra avidity, yeast anti-ID
T21 construct: pH-dependent anti-CD3 antibody made in CHO cells
Protocol: as §1, §2, §3

[22] = target: T22, ADI-74968; assay: SPR Carterra avidity, yeast anti-ID
T22 construct: pH-dependent anti-CD3 antibody made in CHO cells
Protocol: as §1, §2, §3

[23] = target: T23, ADI-76358; assay: SPR Carterra avidity, yeast anti-ID
T23 construct: anti-CD3 antibody made in CHO cells, captured by anti-human Fc
Protocol: as §1, §2, §3

[24] = target: T24, ADI-76359; assay: SPR Carterra avidity, yeast anti-ID
T24 construct: anti-CD3 antibody made in CHO cells, captured by anti-human Fc
T24 sequence (VH, as listed by the source, chain 1 of 2): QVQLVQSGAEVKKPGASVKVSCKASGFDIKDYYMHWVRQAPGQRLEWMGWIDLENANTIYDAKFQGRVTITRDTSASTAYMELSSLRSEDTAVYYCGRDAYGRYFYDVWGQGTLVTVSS
Protocol: as §1, §2, §3

[25] = target: T25, ADI-76360; assay: SPR Carterra avidity, yeast anti-ID
T25 construct: anti-CD3 antibody made in CHO cells, captured by anti-human Fc
Protocol: as §1, §2, §3

[26] = target: T26, ADI-76362; assay: SPR Carterra avidity, yeast anti-ID
T26 construct: anti-CD3 antibody made in CHO cells, captured by anti-human Fc
T26 sequence (VH, as listed by the source, chain 1 of 2): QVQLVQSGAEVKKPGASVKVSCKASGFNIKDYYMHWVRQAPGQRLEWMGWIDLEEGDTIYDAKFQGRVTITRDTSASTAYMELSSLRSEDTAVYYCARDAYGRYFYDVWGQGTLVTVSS
Protocol: as §1, §2, §3

[27] = target: T27, CTL-62223; assay: SPR Carterra avidity, yeast anti-ID
T27 construct: also called mosunetuzumab
T27 sequence (VH, as listed by the source, chain 1 of 2): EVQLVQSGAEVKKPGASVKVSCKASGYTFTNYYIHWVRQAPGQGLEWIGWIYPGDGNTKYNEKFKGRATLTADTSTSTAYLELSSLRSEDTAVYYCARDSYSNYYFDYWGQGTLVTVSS
T27 sequence (VL, as listed by the source, chain 2 of 2): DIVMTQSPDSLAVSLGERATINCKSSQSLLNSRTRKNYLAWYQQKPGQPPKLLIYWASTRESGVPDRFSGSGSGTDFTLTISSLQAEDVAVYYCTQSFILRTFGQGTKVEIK
Protocol: as §1, §2, §3

[28] = target: T28, ADI-22523 Fab; assay: BLI; tip anti-ID IgG, solution ADI-22523 Fab
T28 construct: anti-CD3 Fab by papain digestion of the IgG
Protocol: (§4) ForteBio affinity measurements were performed generally as previously described (Estep et al., MAbs. 2013 5(2):270-8). Briefly, ForteBio affinity measurements were performed by loading antibody IgG or Fabs on-line onto AHC sensors. Sensors were equilibrated off-line in assay buffer for 30 minutes and then monitored on-line for 60 seconds for baseline establishment. For avid binding measurement, sensors with loaded antibodies were exposed to IgG or Fab solutions for 3 minutes, afterwards they were transferred to assay buffer for 3 minutes for off-rate measurement. Kinetics data were fit using a 1:1 binding model in the data analysis software provided by ForteBio to obtain equilibrium dissociation constant (KD=koff/kₒₙ) values. In each column, tip-immobilized antibodies are listed first and solution antibodies second.

[29] = target: T29, ADI-22523 IgG; assay: BLI; tip anti-ID IgG, solution ADI-22523 IgG
T29 construct: anti-CD3 IgG
Protocol: as §4

[30] = target: T30, ADI-50024; assay: SPR Carterra avidity, yeast anti-ID, *koff limit
T30 construct: anti-CD3 antibody made in CHO cells, captured by anti-human Fc
Protocol: as §1, §2, §3

[31] = target: T31, ADI-26906 IgG; assay: SPR Carterra avidity, yeast anti-ID, *koff limit
T31 construct: anti-CD3 IgG
Protocol: as §1, §2, §3

[32] = target: T32, ADI-26920 IgG; assay: SPR Carterra avidity, yeast anti-ID, *koff limit
T32 construct: anti-CD3 IgG
Protocol: as §1, §2, §3

[33] = target: T33, ADI-74967; assay: SPR Carterra avidity, yeast anti-ID, *koff limit
T33 construct: pH-dependent anti-CD3 antibody made in CHO cells
Protocol: as §1, §2, §3

[34] = target: T34, ADI-76357; assay: SPR Carterra avidity, yeast anti-ID, *koff limit
T34 construct: anti-CD3 antibody made in CHO cells, captured by anti-human Fc
T34 sequence (VH, as listed by the source, chain 1 of 2): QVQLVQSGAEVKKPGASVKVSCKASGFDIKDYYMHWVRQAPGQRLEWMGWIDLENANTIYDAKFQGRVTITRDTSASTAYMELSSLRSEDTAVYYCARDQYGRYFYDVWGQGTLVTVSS
Protocol: as §1, §2, §3

[35] = target: T35, ADI-76361; assay: SPR Carterra avidity, yeast anti-ID, *koff limit
T35 construct: anti-CD3 antibody made in CHO cells, captured by anti-human Fc
T35 sequence (VH, as listed by the source, chain 1 of 2): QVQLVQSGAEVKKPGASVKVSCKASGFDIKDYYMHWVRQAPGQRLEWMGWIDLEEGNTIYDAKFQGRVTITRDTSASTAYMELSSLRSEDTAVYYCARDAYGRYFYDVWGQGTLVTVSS
Protocol: as §1, §2, §3

T1 sequence (VH, as listed by the source limits assumed, chain 1 of 2): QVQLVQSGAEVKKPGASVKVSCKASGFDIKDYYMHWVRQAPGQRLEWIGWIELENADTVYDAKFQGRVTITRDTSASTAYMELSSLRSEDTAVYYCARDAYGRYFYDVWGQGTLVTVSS
T1 sequence (VL, as listed by the source limits assumed, chain 2 of 2): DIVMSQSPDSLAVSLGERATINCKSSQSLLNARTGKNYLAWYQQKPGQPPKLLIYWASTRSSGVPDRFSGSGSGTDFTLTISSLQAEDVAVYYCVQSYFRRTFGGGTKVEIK

Kd [1]: 2.1 nM
Kd [2]: 2 nM
Kd [3]: 0.42 nM
Kd [4]: 0.56 nM
Kd [5]: 0.34 nM
Kd [6]: 0.18 nM
Kd [7]: 0.3 nM
Kd [8]: 0.18 nM
Kd [9]: 0.16 nM
Kd [10]: 0.18 nM
Kd [11]: 0.35 nM
binding result [12]: binds
Kd [13]: 0.17 nM
binding result [14]: binds
Kd [15]: 0.25 nM
Kd [16]: 29 nM
Kd [17]: 1.9 nM
binding result [18]: binds
Kd [19]: 3.3 nM
Kd [20]: 9.4 nM
Kd [21]: 0.64 nM
Kd [22]: 1.2 nM
Kd [23]: 0.73 nM
Kd [24]: 0.12 nM
Kd [25]: 0.35 nM
Kd [26]: 0.14 nM
Kd [27]: 1.2 nM
Kd [28]: 30.4 nM
Kd [29]: 0.75 nM
Kd [30]: 0.42 nM
Kd [31]: 0.25 nM
Kd [32]: 0.14 nM
Kd [33]: 0.15 nM
Kd [34]: 0.12 nM
Kd [35]: 0.1 nM
B1: ADI-34136 (antibody, V domains shown)
VH: QVQLVQSGAEVKKPGSSVKVSCKASGGTFSSYAISWVRQAPGQGLEWMGGIIPIFGTANYAQKFQGRVTITADESTSTAYMELSSLRSEDTAVYYCARGAPNYYGSGGYDDGWFDPWGQGTLVTVSS
VL: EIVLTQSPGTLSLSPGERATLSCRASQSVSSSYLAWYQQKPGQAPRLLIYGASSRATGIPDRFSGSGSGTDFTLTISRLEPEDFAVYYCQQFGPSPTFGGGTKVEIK
notes: anti-ID IgG
